The text below walks through data of the supplement of paper PMC11316812.

± gives the standard deviation of the averaged measurements.

Data set [1] concerns MCF7. Description: percentage of EdU-negative (G0-arrested) nuclei per well, 72 h; higher = more G0 arrest. The note with it: reference: sequence is the full UniProt precursor, the tested protein was the secreted form or ectodomain.
Data set [2] concerns hTERT-HMEC. Described as above. The conditions noted are these: reference: sequence is the full UniProt precursor, the tested protein was the secreted form or ectodomain.
Setting [3] is: protein concentration 0.0225 µM.
Where [4] appears, read: protein concentration 0.01975 µM.
[5] abbreviates: protein concentration 0.1975 µM.
The mark [6] stands for this setting: protein concentration 0.0161125 µM.
Where [7] appears, read: protein concentration 0.161125 µM.
The mark [8] stands for this setting: protein concentration 0.0286875 µM.
Where [9] appears, read: protein concentration 0.286875 µM.
The mark [10] stands for this setting: protein concentration 0.014515 µM.
[11] abbreviates: protein concentration 0.14515 µM.
Where [12] appears, read: protein concentration 0.0135 µM.
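Also: secreted proteins added to cultured cells, EdU pulse at the end, nuclei found by Hoechst imaging, EdU status from nuclear versus surrounding ring intensity ratio, PBS as neutral control.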

With “MWNMLIVAMCLALLGCLQAQELQGHVSIILLGATGDLAKKYLWQGLFQLYLDEAGRGHSFSFHGAALTAPKQGQELMAKALESLSCPKDMAPSHCAEHKDQFLQLSQYRQLKTAEDYQALNKDIEAQLQHAGLREAGRIFYFSVPPFAYEDIARNINSSCRPGPGAWLRVVLEKPFGHDHFSAQQLATELGTFFQEEEMYRVDHYLGKQAVAQILPFRDQNRKALDGLWNRHHVERVEIIMKETVDAEGRTSFYEEYGVIRDVLQNHLTEVLTLVAMELPHNVSSAEAVLRHKLQVFQALRGLQRGSAVVGQYQSYSEQVRRELQKPDSFHSLTPTFAAVLVHIDNLRWEGVPFILMSGKALDERVGYARILFKNQACCVQSEKHWAAAQSQCLPRQLVFHIGHGDLGSPAVLVSRNLFRPSLPSSWKEMEGPPGLRLFGSPLSDYYAYSPVRERDAHSVLLSHIFHGRKNFFITTENLLASWNFWTPLLESLAHKAPRLYPGGAENGRLLDFEFSSGRLFFSQQQPEQLVPGPGPAPMPSDFQVLRAKYRESPLVSAWSEELISKLANDIEATAVRAVRRFGQFHLALSGGSSPVALFQQLATAHYGFPWAHTHLWLVDERCVPLSDPESNFQGLQAHLLQHVRIPYYNIHPMPVHLQQRLCAEEDQGAQIYAREISALVANSSFDLVLLGMGADGHTASLFPQSPTGLDGEQLVVLTTSPSQPHRRMSLSLPLINRAKKVAVLVMGRMKREITTLVSRVGHEPKKWPISGVLPHSGQLVWYMDYDAFLG”, the “percentage of EdU-negative” value was determined as 23.3 ± 2.2% in data set [1] (setting [3]), 25.2 ± 1.6% in data set [1] (protein concentration 0.225 µM), 5.45 ± 1.2% in data set [2] (setting [3]) and 7.4 ± 1.2% in data set [2] (protein concentration 0.225 µM).

Take “MKPPFLLALVVCSVVSTNLKMVSKRNSVDGCIDWSVDLKTYMALAGEPVRVKCALFYSYIRTNYSTAQSTGLRLMWYKNKGDLEEPIIFSEVRMSKEEDSIWFHSAEAQDSGFYTCVLRNSTYCMKVSMSLTVAENESGLCYNSRIRYLEKSEVTKRKEISCPDMDDFKKSDQEPDVVWYKECKPKMWRSIIIQKGNALLIQEVQEEDGGNYTCELKYEGKLVRRTTELKVTALLTDKPPKPLFPMENQPSVIDVQLGKPLNIPCKAFFGFSGESGPMIYWMKGEKFIEELAGHIREGEIRLLKEHLGEKEVELALIFDSVVEADLANYTCHVENRNGRKHASVLLRKKDLIYKIELAGGLGAIFLLLVLLVVIYKCYNIELMLFYRQHFGADETNDDNKEYDAYLSYTKVDQDTLDCDNPEEEQFALEVLPDVLEKHYGYKLFIPERDLIPSGTYMEDLTRYVEQSRRLIIVLTPDYILRRGWSIFELESRLHNMLVSGEIKVILIECTELKGKVNCQEVESLKRSIKLLSLIKWKGSKSSKLNSKFWKHLVYEMPIKKKEMLPRCHVLDSAEQGLFGELQPIPSIAMTSTSATLVSSQADLPEFHPSDSMQIRHCCRGYKHEIPATTLPVPSLGNHHTYCNLPLTLLNGQLPLNNTLKDTQEFHRNSSLLPLSSKELSFTSDIW [Q9NP60]”: the “percentage of EdU-negative” value was found to be 24.9 ± 2.6% in data set [1] (setting [4]), 26.8 ± 1.9% in data set [1] (setting [5]), 4.91 ± 0.99% in data set [2] (setting [4]) and 8.95 ± 0.26% in data set [2] (setting [5]).

“MQAQQYQQQRRKFAAAFLAFIFILAAVDTAEAGKKEKPEKKVKKSDCGEWQWSVCVPTSGDCGLGTREGTRTGAECKQTMKTQRCKIPCNWKKQFGAECKYQFQAWGECDLNTALKTRTGSLKRALHNAECQKTVTISKPCGKLTKPKPQAESKKKKKEGKKQEKMLD”: the “percentage of EdU-negative” value in data set [1] (setting [6]) was determined as 25.8 ± 1.2%; in data set [1] (setting [7]) it was 30.5 ± 1.6%; in data set [2] (setting [6]) it was 4.79 ± 0.99%; in data set [2] (setting [7]) it was 5.12 ± 0.3%.

Turning to “MLDWRLASAHFILAVTLTLWSSGKVLSVDVTTTEAFDSGVIDVQSTPTVREEKSATDLTAKLLLLDELVSLENDVIETKKKRSFSGFGSPLDRLSAGSVDHKGKQRKVVDHPKRRFGIPMDRIGRNRLSNSRG”, the “percentage of EdU-negative” value was 23.9 ± 2% in data set [1] (setting [3]), 24.2 ± 1.3% in data set [1] (protein concentration 0.225 µM), 5.01 ± 0.71% in data set [2] (setting [3]) and 5.5 ± 0.22% in data set [2] (protein concentration 0.225 µM).

For “MKFFLLLFTIGFCWAQYSPNTQQGRTSIVHLFEWRWVDIALECERYLAPKGFGGVQVSPPNENVAIYNPFRPWWERYQPVSYKLCTRSGNEDEFRNMVTRCNNVGVRIYVDAVINHMCGNAVSAGTSSTCGSYFNPGSRDFPAVPYSGWDFNDGKCKTGSGDIENYNDATQVRDCRLTGLLDLALEKDYVRSKIAEYMNHLIDIGVAGFRLDASKHMWPGDIKAILDKLHNLNSNWFPAGSKPFIYQEVIDLGGEPIKSSDYFGNGRVTEFKYGAKLGTVIRKWNGEKMSYLKNWGEGWGFVPSDRALVFVDNHDNQRGHGAGGASILTFWDARLYKMAVGFMLAHPYGFTRVMSSYRWPRQFQNGNDVNDWVGPPNNNGVIKEVTINPDTTCGNDWVCEHRWRQIRNMVIFRNVVDGQPFTNWYDNGSNQVAFGRGNRGFIVFNNDDWSFSLTLQTGLPAGTYCDVISGDKINGNCTGIKIYVSDDGKAHFSISNSAEDPFIAIHAESKL”, the “percentage of EdU-negative” value was 25.6 ± 0.39% in data set [1] (setting [8]), 26.4 ± 0.48% in data set [1] (setting [9]), 5.1 ± 0.51% in data set [2] (setting [8]) and 11.4 ± 1.2% in data set [2] (setting [9]).

“MASRLTLLTLLLLLLAGDRASSNPNATSSSSQDPESLQDRGEGKVATTVISKMLFVEPILEVSSLPTTNSTTNSATKITANTTDEPTTQPTTEPTTQPTIQPTQPTTQLPTDSPTQPTTGSFCPGPVTLCSDLESHSTEAVLGDALVDFSLKLYHAFSAMKKVETNMAFSPFSIASLLTQVLLGAGENTKTNLESILSYPKDFTCVHQALKGFTTKGVTSVSQIFHSPDLAIRDTFVNASRTLYSSSPRVLSNNSDANLELINTWVAKNTNNKISRLLDSLPSDTRLVLLNAIYLSAKWKTTFDPKKTRMEPFHFKNSVIKVPMMNSKKYPVAHFIDQTLKAKVGQLQLSHNLSLVILVPQNLKHRLEDMEQALSPSVFKAIMEKLEMSKFQPTLLTLPRIKVTTSQDMLSIMEKLEFFDFSYDLNLCGLTEDPDLQVSAMQHQTVLELTETGVEAAAASAISVARTLLVFEVQQPFLFVLWDQQHKFPVFMGRVYDPRA”: the “percentage of EdU-negative” value in data set [1] (setting [10]) amounted to 25.6 ± 1.5%; in data set [1] (setting [11]), 26 ± 0.75%; in data set [2] (setting [10]), 5.48 ± 0.2%; in data set [2] (setting [11]), 5.33 ± 0.56%.

“MSSEEGKLFVGGLNFNTDEQALEDHFSSFGPISEVVVVKDRETQRSRGFGFITFTNPEHASVAMRAMNGESLDGRQIRVDHAGKSARGTRGGGFGAHGRGRSYSRGGGDQGYGSGRYYDSRPGGYGYGYGRSRDYNGRNQGGYDRYSGGNYRDNYDN”: the “percentage of EdU-negative” value in data set [1] (setting [12]) came to 25.1 ± 3.6%; in data set [1] (protein concentration 0.135 µM), 27 ± 1.7%; in data set [2] (setting [12]), 5 ± 0.36%; in data set [2] (protein concentration 0.135 µM) it was 8.05 ± 0.55%.
